Source: US20120128626A1 (ALDERBIO, published 2012)

Experiments:
Experiment in all cases: cell-based or functional assay
[1] = target: T1, Mouse IL-6 (mouse, UniProt P08505 25-211)
T1 sequence (looked up): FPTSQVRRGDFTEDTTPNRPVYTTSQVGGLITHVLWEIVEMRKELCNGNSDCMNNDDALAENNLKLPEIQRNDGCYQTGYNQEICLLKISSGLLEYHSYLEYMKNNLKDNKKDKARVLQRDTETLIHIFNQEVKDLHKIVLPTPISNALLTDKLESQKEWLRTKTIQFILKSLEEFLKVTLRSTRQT

[2] = target: T2, Cynomolgus monkey IL-6 (cynomolgus monkey, UniProt P79341 28-212, limits assumed)
T2 sequence (looked up): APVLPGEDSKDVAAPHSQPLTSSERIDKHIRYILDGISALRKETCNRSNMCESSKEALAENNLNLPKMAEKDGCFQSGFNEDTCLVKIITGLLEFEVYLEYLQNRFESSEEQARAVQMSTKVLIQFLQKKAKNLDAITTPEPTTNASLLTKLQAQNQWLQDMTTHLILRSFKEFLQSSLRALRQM

[3] = target: Human IL-6 (human, UniProt P05231 30-212)
[4] = target: T3, Rat IL-6 (rat, UniProt P20607 25-211)
T3 sequence (looked up): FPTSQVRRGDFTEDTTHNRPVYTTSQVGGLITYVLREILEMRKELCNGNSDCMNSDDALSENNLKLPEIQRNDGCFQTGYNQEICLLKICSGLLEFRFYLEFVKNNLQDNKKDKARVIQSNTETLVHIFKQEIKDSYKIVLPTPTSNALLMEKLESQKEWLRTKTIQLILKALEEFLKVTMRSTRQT

- IC50, inhibition of IL-6-stimulated T1165 cell proliferation [1]: 1.84 nM
- IC50, inhibition of IL-6-stimulated T1165 cell proliferation [2]: 0.012 nM
- IC50, inhibition of IL-6-stimulated T1165 cell proliferation [3]: 0.013 nM
- IC50, inhibition of IL-6-stimulated T1165 cell proliferation [4]: 2.06 nM
B1: Ab1 (antibody, human IgG1, kappa, N297A, V domains shown)
VH: EVQLVESGGGLVQPGGSLRLSCAASGFSLSNYYVTWVRQAPGKGLEWVGIIYGSDETAYATSAIGRFTISRDNSKNTLYLQMNSLRAEDTAVYYCARDDSSDWDAKFNLWGQGTLVTVSS
VL: AIQMTQSPSSLSASVGDRVTITCQASQSINNELSWYQQKPGKAPKLLIYRASTLASGVPSRFSGSGSGTDFTLTISSLQPDDFATYYCQQGYSLRNIDNAFGGGTKVEIKR
